We go through three molecules from article PMC6419104, “Structural basis of guanine nucleotide exchange for Rab11 by SH3BP5” (Life Science Alliance, 2019).

The target of test [1] is Rab11a (1–211) L38A (human) (UniProt P62491).
Test [2] addresses Rab11a (1–211) E39A (human) (UniProt P62491).
The target of test [3] is Rab11a (1–211) K41A (human) (UniProt P62491).
Test [4] has as its target Rab11a (1–211) S42A (human) (UniProt P62491).
Test [5] concerns the target Rab11a (1–211) S40A (human) (UniProt P62491).
Another test addresses Rab11a (1–173) (human) (UniProt P62491).
For another test, the target named is T1, SH3BP5 (10–276) (human, UniProt O60239 10-276).
T1 construct: Residues 10–41 and 268–276 were invisible in the electron density; The purification of this construct and of the complex is not described; also called wild-type SH3BP5 (10–276); source: E. coli Rosetta (DE3)
T1 sequence (looked up): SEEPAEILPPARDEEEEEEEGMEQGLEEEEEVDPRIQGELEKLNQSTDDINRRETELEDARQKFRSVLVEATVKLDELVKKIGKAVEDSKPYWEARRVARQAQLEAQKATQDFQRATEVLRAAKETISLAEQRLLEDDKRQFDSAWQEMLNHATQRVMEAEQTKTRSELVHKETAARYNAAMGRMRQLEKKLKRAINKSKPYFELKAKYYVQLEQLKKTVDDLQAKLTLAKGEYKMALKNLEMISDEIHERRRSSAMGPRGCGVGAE
The experiment in a line: crystal structure; SH3BP5 (10–276)–Rab11a (1–173) complex at 6.2 g/l, sitting drop vapor diffusion at 20°C; reservoir 0.4–0.75 M NaCl, 0.1 M NaH2PO4 (pH 6.8), 15–17% PEG2000; 3.8 Å; four complexes in the asymmetric unit. To be noted: both partners purified.

Residue numbers refer to the chain shown, from its start. Names may count otherwise.

B1: SH3BP5 (41–266; R260A/R261A/R262A) (domain or fragment)
chain: VDPRIQGELEKLNQSTDDINRRETELEDARQKFRSVLVEATVKLDELVKKIGKAVEDSKPYWEARRVARQAQLEAQKATQDFQRATEVLRAAKETISLAEQRLLEDDKRQFDSAWQEMLNHATQRVMEAEQTKTRSELVHKETAARYNAAMGRMRQLEKKLKRAINKSKPYFELKAKYYVQLEQLKKTVDDLQAKLTLAKGEYKMALKNLEMISDEIHEAAASSAM
Turning to B1, the GEF activity: Mant-GDP release from Rab11a by fluorescence, with GppNHp (% of the wild-type activity) in test [1] worked out at 50; in test [2], 50; in test [3], 25; in test [4], 25; in test [5] it was 25.

B2: SH3BP5-RA E251A (domain or fragment)
chain: B1 chain with E211A
In turn, B2 returned a GEF activity: Mant-GDP release from Rab11a by fluorescence, with GppNHp (%, relative to wild type) in the test with Rab11a (1–173) (human) of 50.

B3: Rab11a (1–173) (domain or fragment, human, UniProt P62491 1-173, looked up)
chain: MGTRDDEYDYLFKVVLIGDSGVGKSNLLSRFTRNEFNLESKSTIGVEFATRSIQVDGKTIKAQIWDTAGQERYRAITSAYYRGAVGALLVYDIAKHLTYENVERWLKELRDHADSNIVIMLVGNKSDLRHLRAVPTDEARAFAEKNGLSFIETSALDSTNVEAAFQTILTEIY
notes: human Rab11a, residues 1–173; Nucleotide-free in the complex structure (a phosphate ion on the P loop); loaded with Mant-GDP in the GEF assay; source: E. coli Rosetta (DE3), purified (Ni-NTA, Ulp1 cleavage, Superdex200, second Ni-NTA); not shown: His6-SUMO, N-terminal, cleaved
For B3, the binding result with SH3BP5 (10–276) is on record as “binds”.
